Results taken from patent US20060199780A1.

Tests used:
Assay in all cases: cell-based or functional assay
[1] = biological target: Fas (human) (UniProt P25445)
[2] = biological target: B7-2 (CD28 ligand) on mouse lymph node accessory cells (mouse) (UniProt P42082)
[3] = biological target: B7-1 (CD28 ligand) on mouse lymph node accessory cells (mouse) (UniProt Q00609)
Chain of UniProt Q00609 (Q00609 38-306): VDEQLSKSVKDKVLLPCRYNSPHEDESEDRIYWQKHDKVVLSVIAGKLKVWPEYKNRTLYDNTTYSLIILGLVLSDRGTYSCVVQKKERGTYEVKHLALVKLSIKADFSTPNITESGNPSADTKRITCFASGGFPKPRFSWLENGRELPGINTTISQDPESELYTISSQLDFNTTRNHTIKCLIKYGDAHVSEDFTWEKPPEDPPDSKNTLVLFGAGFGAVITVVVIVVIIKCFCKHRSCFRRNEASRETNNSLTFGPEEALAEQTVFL

Chain of UniProt P25445 (P25445 26-335): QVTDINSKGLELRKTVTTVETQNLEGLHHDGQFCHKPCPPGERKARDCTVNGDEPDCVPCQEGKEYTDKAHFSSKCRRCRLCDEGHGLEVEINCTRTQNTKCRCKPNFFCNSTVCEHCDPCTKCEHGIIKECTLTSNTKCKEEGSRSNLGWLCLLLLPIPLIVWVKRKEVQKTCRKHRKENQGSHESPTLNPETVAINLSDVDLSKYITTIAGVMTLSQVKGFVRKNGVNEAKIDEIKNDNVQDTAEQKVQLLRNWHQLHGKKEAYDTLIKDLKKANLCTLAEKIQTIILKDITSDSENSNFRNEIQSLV
Chain of UniProt P42082 (P42082 24-309): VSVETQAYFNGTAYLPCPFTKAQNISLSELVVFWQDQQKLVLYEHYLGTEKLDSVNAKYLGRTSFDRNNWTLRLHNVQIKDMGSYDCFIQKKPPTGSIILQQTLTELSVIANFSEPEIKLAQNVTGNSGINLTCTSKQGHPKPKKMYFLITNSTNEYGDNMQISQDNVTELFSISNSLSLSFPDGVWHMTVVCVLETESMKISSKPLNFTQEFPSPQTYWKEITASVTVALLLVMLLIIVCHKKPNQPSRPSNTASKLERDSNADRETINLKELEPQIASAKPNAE

“CH-11 anti-Fas monoclonal antibody (Panvera)” gave a viability of Jurkat Neo control clones after Fas antibody at 10 ng/ml [1] of less than 10%.
In the case of CTLA4Ig (from Repligen) (Fc fusion), the viability of the activated T cells at 72 hrs [2] is reported as 20% and the viability of the activated T cells at 72 hrs [3] is reported as 20%.
